Assay results published in patent US20260248972A1, “DUAL RECEPTOR TARGETING RADIOLIGANDS AND USES THEREOF RELATED APPLICATIONS” (priority 2022, published 2026).

Assay: in vivo
Conditions: BALB/c nude, mouse, in vivo, iv, total radioactivity
Description: To a 0.5 M NaOAc buffer (20-50 μL, pH=4.5) was added 4 μL of exemplary or comparator compound in DMSO stock solution (2000 μM) and 2 mCi ^177Lu (ITM Isotope Technologies Munich), the resulting mixture was heated to 95° C. for 15 min. The resulting product was analyzed by radio-TLC and radio-HPLC (column: Shim-pack GIST 5 μm 4.6*150 mm; buffer A: 0.2% formic acid H2O; buffer B: 0.1% formic acid acetonitrile; flow rate: 1 mL/min; gradient: 0-5 min: 10% B to 95% B; then 5-8 min: 95% B). The labelled products were used immediately or diluted by a PBS buffer containing freshly added 3 mg/mL ascorbate.
All animal care and experimental procedure were performed by following the animal protocols approved by the ethics committee of China Institute of Radiation Protection. The BALB/c nude mice (Charles River, Beijing) were utilized for these studies. Mice were below 5 per cage in sterile, microisolator cages under temperature- and humidity-controlled conditions with a 12 h light/12 h dark schedule and fed irradiated rodent chow and reverse osmosis (RO) sterile water ad libitum. In preparation for tumor cell inoculations, mice were anesthetized with isoflurane (RWD Life Science Inc.) at an induction rate of 4% and maintained at a rate of 2.5% with 0.4 L oxygen delivered via precision vaporizer and a non-rebreathing apparatus. These mice received subcutaneous rear flank injections of approximately 4×10^6 AR42J cells ([…] pancreatic cancer cell line) suspended in 200 μL of phosphate-buffered saline (PBS) and Matrigel (Corning) (1/1). Xenografted tumors were allowed to grow for ~2-4 weeks post-inoculation and ranged in mass from 0.05 to 0.50 g (average tumor size, 0.20 g). […] The mice were euthanized, and the tissues and organs were excised from the animals at 4, 24 and 72 h post-injection. The tissues and organs were weighed, counted in a PerkinElmer 2480 WIZARD2 γ counter, and the percent injected dose (% ID) and % ID/g of each organ or tissue were calculated.

C[C@@H](O)[C@H](NC(=O)[C@@H]1CSSC[C@H](NC(=O)[C@@H](Cc2ccccc2)NC(=O)COCCOCCNC(=O)[C@H](CCCCNC(=O)CC[C@H](NC(=O)CNC(=O)c2cccc(NC(=O)N[C@@H]3CN(C4CCCCC4)c4ccccc4N(CC(=O)C(C)(C)C)C3=O)c2)C(=O)O)NC(=O)COCCOCCNC(=O)COCCOCCNC(=O)COCCOCCNC(=O)COCCOCCNC(=O)COCCOCCNC(=O)CC[C@H](NC(=O)CN2CCN(CC(=O)O)CCN(CC(=O)O)CCN(CC(=O)O)CC2)C(=O)O)C(=O)N[C@@H](Cc2ccc(O)cc2)C(=O)N[C@H](Cc2c[nH]c3ccccc23)C(=O)N[C@@H](CCCCN)C(=O)N[C@@H]([C@@H](C)O)C(=O)N1)C(=O)O [Compound I-22, DOTA-gE-OEG-OEG-OEG-OEG-OEG-K(-gE-G-Z360)-OEG-f[CYwKTC]T-OH)]
tissue to tissue ratio at 24 h (T/K Tumor/Kidney ratio): 0.6 | tissue to tissue ratio at 24 h (T/L Tumor/Liver ratio): 12 | tissue to tissue ratio at 24 h (T/P Tumor/Pancreas ratio): 5 | tissue to tissue ratio at 24 h (T/Sp Tumor/Spleen ratio): 12 | tissue to tissue ratio at 24 h (T/St Tumor/Stomach ratio): 7.5 | tissue uptake at 24 h (uptake Kidney): 21.9 %ID/g | tissue uptake at 24 h (uptake Liver): 1.1 %ID/g | tissue uptake at 24 h (uptake Pancreas): 2.6 %ID/g | tissue uptake at 24 h (uptake Spleen): 1.1 %ID/g | tissue uptake at 24 h (uptake Stomach): 1.7 %ID/g | tissue uptake at 24 h (uptake Tumor): 12.7 %ID/g

C[C@@H](O)[C@H](NC(=O)[C@@H]1CSSC[C@H](NC(=O)[C@@H](Cc2ccccc2)NC(=O)CN2CCN(CC(=O)O)CCN(CC(=O)O)CCN(CC(=O)O)CC2)C(=O)N[C@@H](Cc2ccc(O)cc2)C(=O)N[C@H](Cc2c[nH]c3ccccc23)C(=O)N[C@@H](CCCCN)C(=O)N[C@@H]([C@@H](C)O)C(=O)N1)C(=O)O [^177Lu-C-1, metal not drawn, reference compound]
tissue uptake at 4 h (% ID/g Adrenal gland): 8.73 %ID/g | tissue uptake at 24 h (% ID/g Adrenal gland): 0.15 %ID/g | tissue uptake at 72 h (% ID/g Adrenal gland): 0.13 %ID/g | tissue uptake at 4 h (% ID/g Blood): 0.02 %ID/g | tissue uptake at 24 h (% ID/g Blood): 0.01 %ID/g | tissue uptake at 72 h (% ID/g Blood): 0.01 %ID/g | tissue uptake at 4 h (% ID/g Femur): 0.07 %ID/g | tissue uptake at 24 h (% ID/g Femur): 0.11 %ID/g | tissue uptake at 72 h (% ID/g Femur): 0.08 %ID/g | tissue uptake at 4 h (% ID/g Heart): 0.06 %ID/g | tissue uptake at 24 h (% ID/g Heart): 0.05 %ID/g | tissue uptake at 72 h (% ID/g Heart): 0.04 %ID/g | tissue uptake at 4 h (% ID/g Intestine): 0.2 %ID/g | tissue uptake at 24 h (% ID/g Intestine): 0.46 %ID/g | tissue uptake at 72 h (% ID/g Intestine): 0.11 %ID/g | tissue uptake at 4 h (% ID/g Kidney): 3.88 %ID/g | tissue uptake at 24 h (% ID/g Kidney): 1.21 %ID/g | tissue uptake at 4 h (% ID/g Liver): 0.1 %ID/g | tissue uptake at 24 h (% ID/g Liver): 0.07 %ID/g | tissue uptake at 72 h (% ID/g Liver): 0.06 %ID/g | tissue uptake at 4 h (% ID/g Lung): 0.63 %ID/g | tissue uptake at 24 h (% ID/g Lung): 0.32 %ID/g | tissue uptake at 72 h (% ID/g Lung): 0.21 %ID/g | tissue uptake at 4 h (% ID/g Muscle): 0.01 %ID/g | tissue uptake at 24 h (% ID/g Muscle): 0.02 %ID/g | tissue uptake at 72 h (% ID/g Muscle): 0.01 %ID/g | tissue uptake at 4 h (% ID/g Pancreas): 0.02 %ID/g | tissue uptake at 24 h (% ID/g Pancreas): 0.16 %ID/g | tissue uptake at 72 h (% ID/g Pancreas): 0.03 %ID/g | tissue uptake at 4 h (% ID/g Spleen): 0.08 %ID/g | tissue uptake at 24 h (% ID/g Spleen): 0.04 %ID/g | tissue uptake at 72 h (% ID/g Spleen): 0.05 %ID/g | tissue uptake at 4 h (% ID/g Stomach): 1.18 %ID/g | tissue uptake at 24 h (% ID/g Stomach): 0.59 %ID/g | tissue uptake at 72 h (% ID/g Stomach): 0.21 %ID/g | tissue uptake at 4 h (% ID/g Tumor): 14 %ID/g | tissue uptake at 24 h (% ID/g Tumor): 5.76 %ID/g | tissue uptake at 72 h (% ID/g Tumor): 4.33 %ID/g

C[C@@H](O)[C@H](NC(=O)[C@@H]1CSSC[C@H](NC(=O)[C@@H](Cc2ccccc2)NC(=O)[C@H](CCCCNC(=O)c2cccc(NC(=O)N[C@@H]3CN(C4CCCCC4)c4ccccc4N(CC(=O)C(C)(C)C)C3=O)c2)NC(=O)COCCOCCNC(=O)CN2CCN(CC(=O)O)CCN(CC(=O)O)CCN(CC(=O)O)CC2)C(=O)N[C@@H](Cc2ccc(O)cc2)C(=O)N[C@H](Cc2c[nH]c3ccccc23)C(=O)N[C@@H](CCCCN)C(=O)N[C@@H]([C@@H](C)O)C(=O)N1)C(=O)O [^177Lu-I-35, metal not drawn]
tissue uptake at 4 h (% ID/g Adrenal gland): 2.8 %ID/g | tissue uptake at 24 h (% ID/g Adrenal gland): 2.3 %ID/g | tissue uptake at 72 h (% ID/g Adrenal gland): 0.34 %ID/g | tissue uptake at 4 h (% ID/g Blood): 1.98 %ID/g | tissue uptake at 24 h (% ID/g Blood): 0.11 %ID/g | tissue uptake at 72 h (% ID/g Blood): 0.03 %ID/g | tissue uptake at 4 h (% ID/g Fat): 3.49 %ID/g | tissue uptake at 24 h (% ID/g Fat): 0.75 %ID/g | tissue uptake at 72 h (% ID/g Fat): 0.41 %ID/g | tissue uptake at 4 h (% ID/g Femur): 1.01 %ID/g | tissue uptake at 24 h (% ID/g Femur): 0.52 %ID/g | tissue uptake at 72 h (% ID/g Femur): 0.21 %ID/g | tissue uptake at 4 h (% ID/g Heart): 1.26 %ID/g | tissue uptake at 24 h (% ID/g Heart): 0.56 %ID/g | tissue uptake at 72 h (% ID/g Heart): 0.25 %ID/g | tissue uptake at 4 h (% ID/g Intestine): 2.36 %ID/g | tissue uptake at 24 h (% ID/g Intestine): 0.84 %ID/g | tissue uptake at 72 h (% ID/g Intestine): 0.72 %ID/g | tissue uptake at 4 h (% ID/g Kidney): 18.5 %ID/g | tissue uptake at 24 h (% ID/g Kidney): 6.06 %ID/g | tissue uptake at 72 h (% ID/g Kidney): 4.51 %ID/g | tissue uptake at 4 h (% ID/g Liver): 18.1 %ID/g | tissue uptake at 24 h (% ID/g Liver): 5.06 %ID/g | tissue uptake at 72 h (% ID/g Liver): 2.41 %ID/g | tissue uptake at 4 h (% ID/g Lung): 3.44 %ID/g | tissue uptake at 24 h (% ID/g Lung): 1.73 %ID/g | tissue uptake at 72 h (% ID/g Lung): 0.66 %ID/g | tissue uptake at 4 h (% ID/g Muscle): 0.42 %ID/g | tissue uptake at 24 h (% ID/g Muscle): 0.12 %ID/g | tissue uptake at 72 h (% ID/g Muscle): 0.03 %ID/g | tissue uptake at 4 h (% ID/g Pancreas): 5.03 %ID/g | tissue uptake at 24 h (% ID/g Pancreas): 0.96 %ID/g | tissue uptake at 72 h (% ID/g Pancreas): 0.34 %ID/g | tissue uptake at 4 h (% ID/g Spleen): 0.82 %ID/g | tissue uptake at 24 h (% ID/g Spleen): 0.47 %ID/g | tissue uptake at 72 h (% ID/g Spleen): 0.28 %ID/g | tissue uptake at 4 h (% ID/g Stomach): 6.98 %ID/g | tissue uptake at 24 h (% ID/g Stomach): 3.09 %ID/g | tissue uptake at 72 h (% ID/g Stomach): 2.29 %ID/g | tissue uptake at 4 h (% ID/g Tumor): 27.2 %ID/g | tissue uptake at 24 h (% ID/g Tumor): 17.8 %ID/g | tissue uptake at 72 h (% ID/g Tumor): 18 %ID/g
